The data set addresses T1, MBP-Δ116 (truncated XydR response regulator) del1-116 (Clostridium cellulolyticum H10 (ATCC 35319/DSM 5812)) (UniProt B8I0K9).
T1 sequence: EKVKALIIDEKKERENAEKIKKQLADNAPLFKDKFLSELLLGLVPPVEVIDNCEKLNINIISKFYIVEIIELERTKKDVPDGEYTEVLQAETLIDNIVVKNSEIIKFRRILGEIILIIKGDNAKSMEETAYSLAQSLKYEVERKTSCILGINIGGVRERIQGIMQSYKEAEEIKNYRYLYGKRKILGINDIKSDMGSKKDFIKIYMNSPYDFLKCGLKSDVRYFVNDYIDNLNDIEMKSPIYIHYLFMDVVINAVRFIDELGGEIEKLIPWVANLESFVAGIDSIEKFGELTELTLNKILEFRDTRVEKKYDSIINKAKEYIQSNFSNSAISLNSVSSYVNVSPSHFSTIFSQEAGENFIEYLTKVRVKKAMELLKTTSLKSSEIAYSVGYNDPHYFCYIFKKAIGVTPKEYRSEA
In words: EMSA. The note with it: 10 mM Tris pH 7.5, 150 mM KCl, 1 mM DTT, 30 ng/uL salmon sperm DNA, 0.1 ug/uL BSA, 0.05% NP-40, 2.5% glycerol, 20 C, 20 min; 20 fmol probe; 5% native PAGE.

As to “CCTTCTTAATCAGTTTCTAATTGCCAAAGAATAAGAGTAAAATGATTAGTAAATCTATATTCATTATAGAATGTAAACTGTTTCCAGCTCAATATAAATCCTTTTGACTTTTGTATATTAATTTTGTAAAATATCATTTTCAGTGTATTGGAGCAACATAAAAAAAGCAGCTGTAGAAAATCCAGCTGCTTTATACTTGCTATTTGTACAATTTTAGAATTACTTGTTAATACCTTATTCCGCAGC (double strand) [R6 (upstream Ccel_1656)]”, the binding result was “binds”. Then “GTATATAAGGTATTGACTTTCTTTGGCAGATGTAAGAATAGGAGTAAAATGAAAAGAACGATTAGTACATATTAACTATGTTAAAAATATTATAGAATGTAAATGGTTTCCATTTCAATATAAATCTTTTTGGTATTGGTATAAATTTTTGAATTCATTTTATCATATTTTGAAAAATTAGTAAATTATTTATTTTATTTTACACTTTTGTATATATTTTTTTAAATTTGTTAAGATATATTTTGCTATGCTTCACTCCTATACTCCTTTGG (double strand) [R3 (upstream Ccel_1229)]”, with “binds”.

The record behind these values is PMC3572039.
